Measurements: US20150210768A1, “Methods and Compounds for Preventing, Treating and Diagnosing an Inflammatory Condition” (Westfaelische Wilhelms-Universitaet Muenster, priority 2012, published 2015)
Numbering of substitutions follows the chain as printed. Names and notes keep the numbering of the source. One block for each molecule: values may come before it.

Tests used:
his-tagged rhTLR4/MD2 [1] = target: T1, his-tagged rhTLR4/MD2 (human, UniProt O00206 24-631; Q9Y6Y9 19-160); experiment: pull-down on beads carrying TLR4/MD2, MALDI-TOF mass spectrometry of the eluate
T1 construct: Bought recombinant human complex (carrier free, R&D SYSTEMS), his-tagged; In the pull-down it was captured by anti-His antibody on Protein A/G agarose; in the ELISA it was coated on the plate; also called TLR4/MD2 complex; TRLR4/MD2
T1 sequence (O00206 24-631 limits assumed, chain 1 of 2): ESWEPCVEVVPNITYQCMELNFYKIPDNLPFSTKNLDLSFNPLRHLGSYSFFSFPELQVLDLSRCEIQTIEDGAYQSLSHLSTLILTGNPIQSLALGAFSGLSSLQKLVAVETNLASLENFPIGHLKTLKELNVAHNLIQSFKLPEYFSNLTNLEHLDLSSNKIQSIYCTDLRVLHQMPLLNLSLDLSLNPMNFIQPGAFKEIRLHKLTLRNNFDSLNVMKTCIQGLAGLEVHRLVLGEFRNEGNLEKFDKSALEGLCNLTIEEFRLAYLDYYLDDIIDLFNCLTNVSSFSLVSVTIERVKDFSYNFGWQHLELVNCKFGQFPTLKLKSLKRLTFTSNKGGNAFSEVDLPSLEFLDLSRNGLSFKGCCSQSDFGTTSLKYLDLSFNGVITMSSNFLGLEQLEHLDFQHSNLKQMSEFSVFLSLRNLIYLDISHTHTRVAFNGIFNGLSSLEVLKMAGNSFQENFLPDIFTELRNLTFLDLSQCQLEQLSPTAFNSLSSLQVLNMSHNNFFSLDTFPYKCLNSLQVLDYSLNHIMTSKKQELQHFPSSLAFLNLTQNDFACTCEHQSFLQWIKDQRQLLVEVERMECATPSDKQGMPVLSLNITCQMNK
T1 sequence (Q9Y6Y9 19-160 limits assumed, chain 2 of 2): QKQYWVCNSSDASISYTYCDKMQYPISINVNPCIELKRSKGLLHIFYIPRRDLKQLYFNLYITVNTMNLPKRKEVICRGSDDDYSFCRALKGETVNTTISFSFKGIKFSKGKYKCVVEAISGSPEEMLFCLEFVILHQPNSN
Experimental: Anti-His antibody (5 μL, 0.5 mg/mL, Invivogen) and his-tagged rhTLR4/MD2 (5 μL, 1 mg/mL, carrier free, R&D SYSTEMS) were mixed and coupled to Protein A/G Agarose (50 μl, Pierce, Thermo Scientific). Trypsin digested peptides of S100A9 were added for 3 h at 4° C. in the presence of 1 mM Calcium. After washing of the beads in HBS/1 mM Ca-buffer for three times bound peptidic fragments were eluted by addition of 10 mM TRIS/2 mM EDTA-buffer and analysed by ESI-QIT- and MALDI-TOF-mass spectrometry. Identical experiments were performed to analyze the binding of the chemical synthesized peptides of S100A9 (aa63-79), S100A8 (aa55-71) and the corresponding control peptides aa63-79 AS and aa55-71 A3.

his-tagged rhTLR4/MD2 [2] = target: T1, his-tagged rhTLR4/MD2; experiment: modified S100A9 ELISA, TLR4/MD2 coated on the plate, 2 ug/ml S100A9, absorbance at 450 nm
Experimental: Binding of S100A9 proteins to TLR4/MD2 was analysed by a modified S100A9-ELISA. Briefly, TLR4/MD2 was coupled to the wells of a 96-well plate and served as capturing molecule. After blocking of the unspecific binding sites by PBS/5% skim milk powder plates were washed three times. S100A9-wt or mutant S100A9 proteins were added at a concentration of 2 μg/ml each in the presence and absence of 100 μM Calcium and incubated for two hours at room temperature. Unbound S100A9 was removed by washing the plates for three times followed by the addition of a primary anti-S100A9-antibody (1 μg/ml, polyclonal, rabbit). After a washing step the secondary anti-rabbit-IgG-antibody coupled to HRP (1 μg/ml from Cell Signalling) was added. TMB was used as substrate for HRP to quantify binding by absorbance readings at 450 nm in an ELISA reader (Anthos Mirkosysteme).

human monocytes = experiment: Stimulation of human monocytes, TNFα release quantified by ELISA; assay type: cell-based; details: human monocytes stimulated for four hours; TNFα by ELISA; FIG. 1
From the text: Using standard techniques known in the art, the inventors expressed the individual human proteins S100A8 and S100A9 in recombinant form, and purified them. After generating homodimers and heterodimers, they analysed the properties of the complexes. FIG. 1 illustrates the stimulation of human monocytes for four hours with the indicated concentrations of (A) recombinant human S100A8, recombinant human S100A9 or human S100A8/S100A9, and (B) recombinant human S100A8/S100A9, recombinant human S100A8/S100A9 (N69A) or S100A8/S100A9 (E78A). TNFα released into the culture medium was quantified by means of ELISA.
Monocytes were isolated from human buffy coats by Ficoll-Paque and subsequent Percoll density centrifugation (Pharmacia, Freiburg, Germany) Cells were cultured in Teflon bags (Biofolie 25; Heraeus Instruments, Hanau, Germany) using McCoy's 5a medium supplemented with 15% fetal calf serum for 1 day before stimulation. Monocytes were incubated for 4 hours with different dosis of hS100A8, hS100A9, hS100A8/S100A9 or the modified proteins as indicated in the figures and TNF-α concentrations in supernatants were determined by ELISA (OptEIA, BD Biosciences, Germany).
Release of cytokine TNF-α was measured in the culture supernatants by ELISA (OptEIA, BD Biosciences). […]

[3] = test system: (S100A8/S100A9)2 tetramers; experiment: Formation of (S100A8/S100A9)2 tetramers after site directed mutagenesis; parameters: species or system human; details: mutation in second calcium binding EF hand of S100A9
Experimental: For the expression of recombinant (rec) proteins without additional peptide sequences, the cDNAs from wt S100A8, wt S100A9 and the S100A9 EF-hand mutants were cloned into the pET11/20 vector [50-NdeI; 30-BamHI]. […] Bacteria were grown at 37° C. in 2×YT for 24 h. Afterwards bacteria were harvested, lysed and the inclusion bodies (IB) prepared. The IB pellet was dissolved in 8 M urea buffer and to establish proper refolding samples were adjusted to pH 2.0-2.5 first by adding hydrochloric acid. After 60 min incubation at room temperature, samples were stepwise dialyzed to get adapted to pH 7.4 for refolding in the presence of 2 mM DTT. After centrifugation (10 min, 60,000 g, 4° C.) to pellet aggregated material, samples were further dialyzed and applied to anion exchange column and gel filtration chromatography. To prepare heterodimeric complexes the recombinant proteins were mixed 1:1 in equimolar concentrations first. Samples were stored as stock solutions at −20° C. Correct refolding and complex formation was assessed by SDS-PAGE, CD spectroscopy, MALDI-MS and ESI-MS.

- binding result (his-tagged rhTLR4/MD2 [1]): no binding
B1: control peptide 63-79 5A of S100A9 (E64A, D65A, K72A, Q73A, E77A) (peptide)
peptide: MAALDTNADAALSFAEF
notes: Chemically synthesized control peptide, molecular weight 1758 g/mol; Positions follow the numbering of full-length S100A9 ('nomenclature of S100A9 maintained'); also called 63-79 A5; 63-79 AS

- binding result (his-tagged rhTLR4/MD2 [2]): binds
B2: recombinant human S100A9 (wild type, homodimer) (ligand)
chain: MTCKMSQLERNIETIINTFHQYSVKLGHPDTLNQGEFKELVRKDLQNFLKKENKNEKVIEHIMEDLDTNADKQLSFEEFIMLMARLTWASHEKMHEGDEGPGHHHKPGLGEGTP
notes: Uniprot P06702; used as a homodimer; also called S100A9 wt; S100A9-wt

B3: S100A8/S100A9 (N69A): recombinant human S100A8/S100A9 with S100A9 EF hand II mutation N69A, prevents tetramer formation (protein)
chain 1: MLTELEKALNSIIDVYHKYSLIKGNFHAVYRDDLKKLLETECPQYIRKKGADVWFKELDINTDGAVNFQEFLILVIKMGVAAHKKSHEESHKE
chain 2: B2 chain with N69A
- activation of monocytes (TNFα released into the culture medium) (human monocytes): activation of monocytes that is comparable to the activation caused by homodimers
- tetramer formation [3]: inhibition of tetramer formation

B4: S100A8/S100A9 (E78A): recombinant human S100A8/S100A9 with S100A9 EF hand II mutation E78A, prevents tetramer formation (protein)
chain 1: B3 chain 1
chain 2: B2 chain with E78A
- activation of monocytes (TNFα released into the culture medium) (human monocytes): activation of monocytes that is comparable to the activation caused by homodimers
- tetramer formation [3]: inhibition of tetramer formation
